# Source: US20240301076A1
# Target: human CXCR2 (human) (UniProt P25025)
# Assay: cell-based or functional assay
# human CXCR2 (human), sequence (P25025 whole entry): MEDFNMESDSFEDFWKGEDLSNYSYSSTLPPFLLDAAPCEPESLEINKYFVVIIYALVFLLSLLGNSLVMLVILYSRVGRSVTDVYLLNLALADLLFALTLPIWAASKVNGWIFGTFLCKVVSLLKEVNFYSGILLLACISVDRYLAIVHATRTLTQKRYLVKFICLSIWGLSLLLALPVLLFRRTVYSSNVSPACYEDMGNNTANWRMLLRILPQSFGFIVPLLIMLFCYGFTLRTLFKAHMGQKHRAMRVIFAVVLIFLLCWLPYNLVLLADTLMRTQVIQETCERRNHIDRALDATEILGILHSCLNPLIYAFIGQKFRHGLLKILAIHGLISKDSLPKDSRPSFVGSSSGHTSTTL
binder,measurement,value
"human CXCL7 (ligand, UniProt P02775 59-128, looked up) AELRCMCIKTTSGIHPKNIQSLEVIGKGTHCNQVEVIATLKDGRKICLDPDAPRIKKIVQKKLAGDESAD","EC50 mean, Tango assay",0.0396 µM
same,"EC50 mean, calcium flux assay",0.00714 µM
